Test results as given in patent publication US20070196354A1, “Method of treating diabetes by inhibiting degradation of at least one of crebl1, atf6, and hnf-4 alpha by htra” (priority 2003, published 2007).
Residue numbers refer to the chain shown, from its start. Names may count otherwise.

T1: CREBL1 (SEQ ID NO: 16) with c-Myc-tag ligated at the N-terminal
T1 chain: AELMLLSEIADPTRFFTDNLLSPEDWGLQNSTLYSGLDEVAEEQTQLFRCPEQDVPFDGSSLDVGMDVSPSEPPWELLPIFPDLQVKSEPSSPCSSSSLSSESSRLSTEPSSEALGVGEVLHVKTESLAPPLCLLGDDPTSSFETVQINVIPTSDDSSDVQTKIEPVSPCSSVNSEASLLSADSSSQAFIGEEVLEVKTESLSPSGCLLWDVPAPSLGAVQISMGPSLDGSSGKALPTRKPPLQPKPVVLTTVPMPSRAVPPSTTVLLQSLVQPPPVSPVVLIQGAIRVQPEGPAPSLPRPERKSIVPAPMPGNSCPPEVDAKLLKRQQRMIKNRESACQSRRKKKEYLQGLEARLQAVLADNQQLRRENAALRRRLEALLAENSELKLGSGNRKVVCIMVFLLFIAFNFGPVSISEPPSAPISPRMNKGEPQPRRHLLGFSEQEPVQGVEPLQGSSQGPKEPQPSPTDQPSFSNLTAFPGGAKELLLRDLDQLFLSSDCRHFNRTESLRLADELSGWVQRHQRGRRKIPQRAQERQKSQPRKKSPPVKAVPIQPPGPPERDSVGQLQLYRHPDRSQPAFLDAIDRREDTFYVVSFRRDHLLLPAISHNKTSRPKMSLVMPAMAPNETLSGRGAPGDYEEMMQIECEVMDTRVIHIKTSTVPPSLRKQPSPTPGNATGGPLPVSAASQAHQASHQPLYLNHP

T2: HNF-4α (SEQ ID NO: 35) with N-terminal tag, as used in Example 6
T2 chain: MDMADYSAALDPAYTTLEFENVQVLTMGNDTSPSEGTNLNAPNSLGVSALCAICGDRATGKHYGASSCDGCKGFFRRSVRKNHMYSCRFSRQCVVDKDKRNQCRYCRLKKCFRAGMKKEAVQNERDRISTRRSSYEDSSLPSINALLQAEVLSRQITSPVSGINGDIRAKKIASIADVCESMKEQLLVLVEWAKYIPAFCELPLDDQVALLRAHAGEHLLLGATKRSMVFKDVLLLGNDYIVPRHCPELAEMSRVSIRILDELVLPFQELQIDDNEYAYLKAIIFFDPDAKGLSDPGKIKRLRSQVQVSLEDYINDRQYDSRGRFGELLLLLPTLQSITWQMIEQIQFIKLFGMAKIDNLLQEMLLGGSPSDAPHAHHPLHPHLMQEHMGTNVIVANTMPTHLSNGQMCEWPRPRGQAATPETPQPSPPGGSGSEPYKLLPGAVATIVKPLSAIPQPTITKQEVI

T3: ATF6 (SEQ ID NO: 18) with c-Myc-tag ligated at the N-terminal
T3 chain: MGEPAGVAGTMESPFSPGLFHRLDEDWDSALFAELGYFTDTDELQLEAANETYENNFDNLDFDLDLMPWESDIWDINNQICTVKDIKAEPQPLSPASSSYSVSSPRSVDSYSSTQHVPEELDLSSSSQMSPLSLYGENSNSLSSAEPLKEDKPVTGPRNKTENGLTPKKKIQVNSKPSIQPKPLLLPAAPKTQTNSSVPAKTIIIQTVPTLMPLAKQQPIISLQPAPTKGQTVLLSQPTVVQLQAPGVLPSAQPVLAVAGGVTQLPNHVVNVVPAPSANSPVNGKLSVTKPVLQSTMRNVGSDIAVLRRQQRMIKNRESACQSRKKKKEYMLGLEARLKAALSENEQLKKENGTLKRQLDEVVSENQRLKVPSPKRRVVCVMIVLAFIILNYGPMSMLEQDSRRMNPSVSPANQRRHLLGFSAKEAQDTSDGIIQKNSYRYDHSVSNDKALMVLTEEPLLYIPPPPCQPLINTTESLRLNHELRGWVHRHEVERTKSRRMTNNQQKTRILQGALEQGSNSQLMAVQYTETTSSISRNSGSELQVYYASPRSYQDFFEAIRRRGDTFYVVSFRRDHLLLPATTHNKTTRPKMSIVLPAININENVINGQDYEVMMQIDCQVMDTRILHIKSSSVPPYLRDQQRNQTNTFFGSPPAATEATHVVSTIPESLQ

T4: biotinylated CREBL1 (N-terminal tagged-CREBL1 with biotinylated lysine residue within the protein)
T4 chain: T1 chain

B1: mature HtrA2 (SEQ ID NO: 4) with histidine (His)-tag ligated at the C-terminal (protein)
chain: MAVPSPPPASPRSQYNFIADVVEKTAPAVVYIEILDRHPFLGREVPISNGSGFVVAADGLIVTNAHVVADRRRVRVRLLSGDTYEAVVTAVDPVADIATLRIQTKEPLPTLPLGRSADVRQGEFVVAMGSPFALQNTITSGIVSSAQRPARDLGLPQTNVEYIQTDAAIDFGNSGGPLVNLDGEVIGVNTMKVTAGISFAIPSDRLREFLHRGEKKNSSSGISGSQRRYIGVMMLTLSPSILAELQLREPSFPDVQHGVLIHKVILGSPAHRAGLRPGDVILAIGEQMVQNAEDVYEAVRTQSQLAVQIRRGRETLTLYVTPEVTE
B2: mature HtrA2 (S306A) (SEQ ID NO: 6) with histidine (His)-tag ligated at the C-terminal (protein)
chain: B1 chain with S174A

Columns and labels:
[1] = target: T1, CREBL1 (SEQ ID NO: 16) with c-Myc-tag …
[2] = target: T2, HNF-4α (SEQ ID NO: 35) with N-terminal …
[3] = target: T3, ATF6 (SEQ ID NO: 18) with c-Myc-tag …
[4] = target: T4, biotinylated CREBL1 (N-terminal …)

| Protein | in vitro protease assay; western blotting of CREBL1 band [1] | in vitro protease assay; western blotting of HNF-4α band [2] | in vitro protease assay; western blotting of ATF6 band [3] | in vitro protease assay; degradation pattern of biotinylated CREBL1 by western blotting (streptavidin HRP) [4] |
| --- | --- | --- | --- | --- |
| B1 | the band of CREBL1 was reduced significantly after the reaction of active HtrA2 with CREBL1 for overnight (O/N) | the band of HNF-4α was reduced significantly after the reaction of active HtrA2 with HNF-4α for overnight (O/N) | the band of ATF6 was reduced significantly after the reaction of active HtrA2 with ATF6 for four hours (4 h) or overnight (O/N) | remarkable reduction of the band of biotinylated CREBL1 was observed, and further, the band that was supposed to be a degradation product of CREBL1 was detected around 50 kDa |
| B2 | the degradation of CREBL1 and ATF6 by inactive HtrA2 (mature HtrA2 (S306A)) was not observed | the degradation of HNF-4α by inactive HtrA2 (mature HtrA2 (S306A)) was not observed | the degradation of CREBL1 and ATF6 by inactive HtrA2 (mature HtrA2 (S306A)) was not observed | the degradation of CREBL1 by inactive HtrA2 (mature HtrA2 (S306A)) was not observed, and the band around 50 kDa as above was not detected |
